Test system: 4T1 orthotopic tumor-bearing BALB/c mice
Assay: in vivo
Conditions: mouse; for biodistribution, Blood / biodistribution, Bone / biodistribution, Brain / biodistribution, Heart / biodistribution, Kidneys / biodistribution, L. intestine / biodistribution, Liver / biodistribution, Lungs / biodistribution, Muscle / biodistribution, Pancreas / biodistribution, S. intestine / biodistribution, Skin / biodistribution, Spleen / biodistribution, Stomach / biodistribution, Tumor (4T1 tumoral uptake): iv, 4 h
Protocol: 4T1 orthotopic BALB/c mouse model. The cells were removed from the flasks, concentrated, and resuspended in minimal media for cell counting. The cells were then diluted to contain approximately 1 million cells in 30 μL of media (for orthotopic allografts). Following an MSKCC Institutional Animal Care and Use Committee approved protocol, 8-10 week old BALB/c mice (Charles River Laboratories, Wilmington, MA) were surgically implanted with one million 4T1 cancer cells into the first or the last mammary fat pad of the right side of the animal using aseptic surgical techniques and sterile staple closures while the mice were under anesthetic. Additionally, mice were given injections of meloxicam (24 h pain killer) in the scruff and bupivacaine intradermally prior to surgical incisions. One day post surgery, the mice were again given meloxicam and checked to ensure that the closure was healing. Two and three days post surgery, the mice were checked to ensure that the animals were healthy and recovering well from the surgery. Five to seven days post surgery, the staples were removed. Five to nine days post surgery, the mice were injected with 50-75 μCi (0.9-0.4 nmol) of the respective radiopharmaceutical for in vivo biodistribution or 500-600 μCi (9-11 nmol) for in vivo imaging. The mice receiving ^64Cu-NOTA-pHLIP were sacrificed at 1, 2, 4, 12, 24, 36, and 48 h; the mice receiving [^18F]—AlF-NOTA-pHLIP were sacrificed at 0.5, 1, 2, 4, 6 and 8 h. The 4T1 tumors in this study were purposely used 5-9 days after inoculation to ensure lower tumoral pH. Animal models. Animal studies were conducted according to MSKCC IACUC-approved animal protocol. 4T1 (orthotopic breast cancer allografts of 1×10^6 cells surgically implanted in the mammary fat pad) and B16-F10 (orthotopic melanoma allografts of 1×10^5 cells injected intradermally on the shoulder) tumors were orthotopically inoculated in media in female BALB/c and C57Bl/6 mice (Charles River Laboratories (CRL)), respectively. Additionally, PC3 (3×10^6 cells) or LNCaP (3-6×10^6 cells) tumors were subcutaneously xenografted on the shoulder of athymic nude male mice (CRL). Mice were used once tumor volumes were approximately 90-300 mm^3. In vivo animal PET imaging and biodistribution. Mice were injected with radiolabeled NOTA-pHLIP derivatives i.v. (500-700 μCi/mouse for PET or SPECT imaging studies and 25-100 μCi/mouse for biodistribution studies). All injections were less than 200 μL with <10% EtOH in sterile PBS. PET images were obtained with the mice under anesthesia in an Inveon PET-CT or microPET Focus 120 (Siemens) at 0.5-48 h p.i. All images were analyzed using ASIPro VM (Concorde Microsystems). SPECT images were obtained with the mice under anesthesia in a NanoSPECT/CT Plus at 4-24 h p.i. All SPECT images were reconstructed using HiSPECT and analyzed using InVivoScope. Dissections for ex vivo biodistribution were performed on mice after CO2 asphyxiation or cervical dislocation while anesthetized at reported time points. Weight of the syringe prior to injection and after injection was used to determine the mass of injectate. Activity of the syringe prior to injection and after injection was used to determine the percent of injectate administered. The mass injected was corrected by the percent of radioactivity injected. Four to five aliquots (10 μL) were weighed and counted as internal standards for each study. All of the collected organs were counted using an automatic gamma counter (Wizard 3″, PerkinElmer, Waltham, MA). The total injected dose was found as the mass injected dose×fraction radioactivity injected×internal standard average counts/g. The percent injected dose (% ID) was determined as the counts for the tissue×100/total injected dose. The % ID/g was calculated as the % ID/tissue weight. The average and standard deviation of the % ID and % ID/g was determined using normal methods (n−1) for each set of mice.

Structure (SMILES): CC(C)C[C@@H](NC(=O)[C@@H](CCC(=O)O)NC(=O)[C@@H](CC(C)C)NC(=O)[C@@H](CC(C)C)NC(=O)[C@@H](CC(C)C)NC(=O)[C@H](NC(=O)[C@@H](CCC(=O)O)NC(=O)[C@H](NC(=O)[C@H]1CCCN1C(=O)[C@@H](Cc1ccccc1)NC(=O)[C@@H](CC(C)C)NC(=O)[C@@H](Cc1c[nH]c2ccccc12)NC(=O)[C@@H](CCC(=O)O)NC(=O)[C@@H](CC(C)C)NC(=O)[C@@H](Cc1ccc(O)cc1)NC(=O)[C@@H](CCCNC(=N)N)NC(=O)[C@@H](C)NC(=O)[C@@H](Cc1c[nH]c2ccccc12)NC(=O)[C@H]1CCCN1C(=O)[C@@H](CC(N)=O)NC(=O)[C@@H](CCC(N)=O)NC(=O)[C@@H](CCC(=O)O)NC(=O)[C@@H](CCC(=O)O)NC(=O)[C@@H](CS)NC(=O)[C@@H](C)NC(=S)Nc1ccc(CC2CN(CC(=O)O)CCN(CC(=O)O)CCN2CC(=O)O)cc1)[C@H](C)O)[C@H](C)O)C(=O)O (single isomer, unassigned) [[^18F]—AlF-NOTA-Var7]
- kidneys-to-large intestine ratio: 0.55±0.19
- biodistribution, Blood: 2.292 ± 0.277 % ID/g
- biodistribution, Bone: 0.571 ± 0.202 % ID/g
- biodistribution, Brain: 0.118 ± 0.011 % ID/g
- biodistribution, Heart: 0.78 ± 0.06 % ID/g
- biodistribution, Kidneys: 7.759 ± 0.658 % ID/g
- biodistribution, L. intestine: 22.08 ± 6.02 % ID/g
- biodistribution, Liver: 1.089 ± 0.066 % ID/g
- biodistribution, Lungs: 2.325 ± 0.212 % ID/g
- biodistribution, Muscle: 0.325 ± 0.073 % ID/g
- biodistribution, Pancreas: 0.373 ± 0.051 % ID/g
- biodistribution, S. intestine: 0.776 ± 0.196 % ID/g
- biodistribution, Skin: 1.377 ± 0.148 % ID/g
- biodistribution, Spleen: 0.485 ± 0.029 % ID/g
- biodistribution, Stomach: 0.593 ± 0.153 % ID/g
- biodistribution, Tumor (4T1 tumoral uptake): 1.105 ± 0.125 % ID/g

Structure (SMILES): CC(C)C[C@@H](NC(=O)[C@@H](CC(C)C)NC(=O)[C@@H](CC(=O)O)NC(=O)[C@@H](CC(C)C)NC(=O)[C@@H](CC(C)C)NC(=O)[C@@H](CC(C)C)NC(=O)[C@H](NC(=O)[C@@H](CC(=O)O)NC(=O)[C@H](NC(=O)[C@H]1CCCN1C(=O)[C@@H](Cc1ccccc1)NC(=O)[C@@H](CC(C)C)NC(=O)[C@@H](CC(C)C)NC(=O)[C@@H](CC(=O)O)NC(=O)[C@@H](CC(C)C)NC(=O)[C@@H](Cc1ccc(O)cc1)NC(=O)[C@@H](C)NC(=O)[C@@H](CCCNC(=N)N)NC(=O)[C@@H](Cc1c[nH]c2ccccc12)NC(=O)[C@H]1CCCN1C(=O)[C@@H](CC(N)=O)NC(=O)[C@@H](CCC(N)=O)NC(=O)[C@@H](CC(=O)O)NC(=O)[C@@H](CC(=O)O)NC(=O)[C@@H](CS)NC(=O)[C@@H](C)NC(=S)Nc1ccc(CC2CN(CC(=O)O)CCN(CC(=O)O)CCN2CC(=O)O)cc1)[C@H](C)O)[C@H](C)O)C(=O)N[C@H](Cc1c[nH]c2ccccc12)C(=O)O (single isomer, unassigned) [^64Cu-NOTA-Var3, metal not drawn]
- biodistribution, Blood: 1.371 ± 0.244 % ID/g
- biodistribution, Bone: 0.339 ± 0.018 % ID/g
- biodistribution, Brain: 0.063 ± 0.011 % ID/g
- biodistribution, Heart: 0.49 ± 0.05 % ID/g
- biodistribution, Kidneys: 7.165 ± 1.126 % ID/g
- biodistribution, L. intestine: 7.45 ± 2.73 % ID/g
- biodistribution, Liver: 1.034 ± 0.150 % ID/g
- biodistribution, Lungs: 1.420 ± 0.117 % ID/g
- biodistribution, Muscle: 0.171 ± 0.017 % ID/g
- biodistribution, Pancreas: 0.279 ± 0.041 % ID/g
- biodistribution, S. intestine: 0.320 ± 0.042 % ID/g
- biodistribution, Skin: 0.775 ± 0.102 % ID/g
- biodistribution, Spleen: 0.340 ± 0.032 % ID/g
- biodistribution, Stomach: 0.194 ± 0.050 % ID/g
- biodistribution, Tumor (4T1 tumoral uptake): 0.649 ± 0.091 % ID/g

Structure (SMILES): CC(C)C[C@@H](NC(=O)[C@@H](CCC(=O)O)NC(=O)[C@@H](CC(C)C)NC(=O)[C@@H](CC(C)C)NC(=O)[C@@H](CC(C)C)NC(=O)[C@H](NC(=O)[C@@H](CCC(=O)O)NC(=O)[C@H](NC(=O)[C@H]1CCCN1C(=O)[C@@H](Cc1ccccc1)NC(=O)[C@@H](CC(C)C)NC(=O)[C@@H](Cc1c[nH]c2ccccc12)NC(=O)[C@@H](CCC(=O)O)NC(=O)[C@@H](CC(C)C)NC(=O)[C@@H](Cc1ccc(O)cc1)NC(=O)[C@@H](CCCNC(=N)N)NC(=O)[C@@H](C)NC(=O)[C@@H](Cc1c[nH]c2ccccc12)NC(=O)[C@H]1CCCN1C(=O)[C@@H](CC(N)=O)NC(=O)[C@@H](CCC(N)=O)NC(=O)[C@@H](CCC(=O)O)NC(=O)[C@@H](CCC(=O)O)NC(=O)[C@@H](CSC1CC(=O)N(CCNC(=O)CN2CCN(CC(=O)O)CCN(CC(=O)O)CC2)C1=O)NC(=O)[C@@H](C)N)[C@H](C)O)[C@H](C)O)C(=O)O (single isomer, unassigned) [^64Cu-NO2A-cysVar7, metal not drawn]
- biodistribution, Blood: 2.31 ± 0.18 % ID/g
- biodistribution, Bone: 1.57 ± 0.18 % ID/g
- biodistribution, Brain: 0.25 ± 0.02 % ID/g
- biodistribution, Heart: 2.68 ± 0.33 % ID/g
- biodistribution, Kidneys: 95.5 ± 11.9 % ID/g
- biodistribution, L. intestine: 8.19 ± 0.85 % ID/g
- biodistribution, Liver: 15.6 ± 1.58 % ID/g
- biodistribution, Lungs: 4.21 ± 0.23 % ID/g
- biodistribution, Muscle: 0.64 ± 0.07 % ID/g
- biodistribution, Pancreas: 1.84 ± 0.10 % ID/g
- biodistribution, S. intestine: 6.37 ± 0.11 % ID/g
- biodistribution, Skin: 2.59 ± 0.05 % ID/g
- biodistribution, Spleen: 3.31 ± 0.24 % ID/g
- biodistribution, Stomach: 3.33 ± 0.31 % ID/g
- biodistribution, Tumor (4T1 tumoral uptake): 9.07 ± 1.81 % ID/g

Structure (SMILES): CC(C)C[C@@H](NC(=O)[C@@H](CC(C)C)NC(=O)[C@@H](CC(=O)O)NC(=O)[C@@H](CC(C)C)NC(=O)[C@@H](CC(C)C)NC(=O)[C@@H](CC(C)C)NC(=O)[C@H](NC(=O)[C@@H](CC(=O)O)NC(=O)[C@H](NC(=O)[C@H]1CCCN1C(=O)[C@@H](Cc1ccccc1)NC(=O)[C@@H](CC(C)C)NC(=O)[C@@H](CC(C)C)NC(=O)[C@@H](CC(=O)O)NC(=O)[C@@H](CC(C)C)NC(=O)[C@@H](Cc1ccc(O)cc1)NC(=O)[C@@H](C)NC(=O)[C@@H](CCCNC(=N)N)NC(=O)[C@@H](Cc1c[nH]c2ccccc12)NC(=O)[C@H]1CCCN1C(=O)[C@@H](CC(N)=O)NC(=O)[C@@H](CCC(N)=O)NC(=O)[C@@H](CC(=O)O)NC(=O)[C@@H](CC(=O)O)NC(=O)[C@@H](CS)NC(=O)[C@@H](C)NC(=S)Nc1ccc(CC2CN(CC(=O)O)CCN(CC(=O)O)CCN2CC(=O)O)cc1)[C@H](C)O)[C@H](C)O)C(=O)N[C@H](Cc1c[nH]c2ccccc12)C(=O)O (single isomer, unassigned) [[^18F]—AlF-NOTA-Var3]
- kidneys-to-large intestine ratio: 0.52±0.15
- biodistribution, Blood: 2.201 ± 0.374 % ID/g
- biodistribution, Bone: 0.540 ± 0.119 % ID/g
- biodistribution, Brain: 0.107 ± 0.023 % ID/g
- biodistribution, Heart: 0.78 ± 0.08 % ID/g
- biodistribution, Kidneys: 8.237 ± 1.106 % ID/g
- biodistribution, L. intestine: 22.05 ± 2.46 % ID/g
- biodistribution, Liver: 0.923 ± 0.153 % ID/g
- biodistribution, Lungs: 2.217 ± 0.380 % ID/g
- biodistribution, Muscle: 0.282 ± 0.055 % ID/g
- biodistribution, Pancreas: 0.332 ± 0.020 % ID/g
- biodistribution, S. intestine: 0.927 ± 0.152 % ID/g
- biodistribution, Skin: 1.126 ± 0.115 % ID/g
- biodistribution, Spleen: 0.469 ± 0.093 % ID/g
- biodistribution, Stomach: 0.482 ± 0.223 % ID/g
- biodistribution, Tumor (4T1 tumoral uptake): 0.923 ± 0.119 % ID/g

Source: US12551583B2, “Radiolabeled ligands for targeted PET/SPECT imaging and methods of their use” (MEMORIAL SLOAN KETTERING CANCER CENTER, priority 2016, dated 2026)
